Target: T1, Snu17 of the RES complex purified from yeast (S. cerevisiae (endogenous in the …, UniProt P40565 1-148))
T1 sequence (looked up): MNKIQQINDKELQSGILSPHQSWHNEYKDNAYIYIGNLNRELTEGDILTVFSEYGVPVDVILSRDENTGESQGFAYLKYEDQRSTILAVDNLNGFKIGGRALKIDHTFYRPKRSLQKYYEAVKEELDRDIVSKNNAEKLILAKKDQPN
Assay: SEC

Row | Binder | stoichiometry N
1 | Bud13 of the RES complex purified from yeast (natural protein, UniProt P46947 1-266, looked up) MALHQYLSETYGPTKPKNKTKKKKKESKSDANSDKTSLIVKERLSTLQQEQEKSGVASFSKFDKQKSKNIWKNLETNELSHAITHPSASSITGNESKNDLKEIRAQEPLVTVADKSKTRKTIYRDAQGHKIQEDSKIDDSSFSRSKYEDEKAAEREQYLKNLNMGDVQKLGINVDAHDKKKNQTASSLTIEDPAITFTHDKERTVKTSLLGRKLYDKPAPENRFAIMPGSRWDGVHRSNGFEEKWFAKQNEINEKKVQSYTLQEDY | 1
2 | Pml1 of the RES complex purified from yeast (natural protein, UniProt Q07930 1-204, looked up) MFHRRKRPYNTRNYGHDDKKFKSQYIDIMPDFSPSGLLELESNNKEGIALKHVEPQDAISPDNYMDMLGLEARDRTMYELVIYRKNDKDKGPWKRYDLNGRSCYLVGRELGHSLDTDLDDRTEIVVADIGIPEETSSKQHCVIQFRNVRGILKCYVMDLDSSNGTCLNNVVIPGARYIELRSGDVLTLSEFEEDNDYELIFMNV | 1

Source: article PMC2615620 (Nucleic Acids Research, 2008)
